Data from patent US12383631 (BRIGHT PEAK THERAPEUTICS, dated 2025).

T1: recombinant Human Fc gamma RIIB/CD32b Avi-tag Protein (R&D systems, AVI1875-050) (human, UniProt P31994 46-217)
T1 construct: also called FcγRIIb (CD32b); not shown: Avi-tag
T1 sequence (looked up): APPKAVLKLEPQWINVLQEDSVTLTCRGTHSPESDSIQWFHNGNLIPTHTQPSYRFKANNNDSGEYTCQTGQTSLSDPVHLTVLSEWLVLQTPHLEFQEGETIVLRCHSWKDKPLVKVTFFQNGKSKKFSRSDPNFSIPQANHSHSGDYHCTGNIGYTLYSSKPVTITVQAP

B1: Durvalumab/Imfinzi (antibody, human IgG1, kappa)
heavy: EVQLVESGGGLVQPGGSLRLSCAASGFTFSRYWMSWVRQAPGKGLEWVANIKQDGSEKYYVDSVKGRFTISRDNAKNSLYLQMNSLRAEDTAVYYCAREGGWFGELAFDYWGQGTLVTVSSASTKGPSVFPLAPSSKSTSGGTAALGCLVKDYFPEPVTVSWNSGALTSGVHTFPAVLQSSGLYSLSSVVTVPSSSLGTQTYICNVNHKPSNTKVDKRVEPKSCDKTHTCPPCPAPEFEGGPSVFLFPPKPKDTLMISRTPEVTCVVVDVSHEDPEVKFNWYVDGVEVHNAKTKPREEQYNSTYRVVSVLTVLHQDWLNGKEYKCKVSNKALPASIEKTISKAKGQPREPQVYTLPPSREEMTKNQVSLTCLVKGFYPSDIAVEWESNGQPENNYKTTPPVLDSDGSFFLYSKLTVDKSRWQQGNVFSCSVMHEALHNHYTQKSLSLSPGK
light: EIVLTQSPGTLSLSPGERATLSCRASQRVSSSYLAWYQQKPGQAPRLLIYDASSRATGIPDRFSGSGSGTDFTLTISRLEPEDFAVYYCQQYGSLPWTFGQGTKVEIKRTVAAPSVFIFPPSDEQLKSGTASVVCLLNNFYPREAKVQWKVDNALQSGNSQESVTEQDSKDSTYSLSSTLTLSKADYEKHKVYACEVTHQGLSSPVTKSFNRGEC
notes: also called MEDI-4736
B2: recombinant Human Fc gamma RIIA/CD32a (H167) Protein (R&D systems, 9595-CD-050) (receptor)
chain: AAPPKAVLKLEPPWINVLQEDSVTLTCQGARSPESDSIQWFHNGNLIPTHTQPSYRFKANNNDSGEYTCQTGQTSLSDPVHLTVLSEWLVLQTPHLEFQEGETIMLRCHSWKDKPLVKVTFFQNGKSQKFSHLDPTFSIPQANHSHSGDYHCTGNIGYTLFSSKPVTITVQVPSMGSSSPMGI
notes: detected with an anti-His antibody; tag not described; also called FcγRIIa (CD32a)
B3: LZM-009 (antibody, V domains shown)
VH: QVQLVQSGAEVKKPGASVKVSCKASGYTFTSYYMYWVRQAPGQGLEWMGGVNPSNGGTNFNEKFKSRVTITADKSTSTAYMELSSLRSEDTAVYYCARRDYRYDMGFDYWGQGTTVTVSS
VL: EIVLTQSPATLSLSPGERATISCRASKGVSTSGYSYLHWYQQKPGQAPRLLIYLASYLESGVPARFSGSGSGTDFTLTISSLEPEDFATYYCQHSRELPLTFGTGTKVEIK
notes: also called LZM-009 anti-PD-1 antibody
B4: Composition A (LZM-009 conjugated to IL-18 polypeptide of SEQ ID NO: 30) (other)
VH: B3 VH
VL: B3 VL
chain: YFGKLKSKLSIIRNLNDQVLFIDQGNRPLFEDMTDSDARDNAPRTIFIISMYADSQPRGMAVAISVKCEKISTLSAENKIISFKEMNPPDNIKDTKSDIIFFQRSVPGHDNKMQFESSSYEGYFLAAEKERDLFKLILKKEDELGDRSIMFTVQNED

How the values were obtained:
[1] = target: T2, recombinant Human Fc gamma RI/CD64 Protein (R&D systems, 1257-FC-050) (human, UniProt P12314 16-288); experiment: ELISA; antibody coated, receptor titrated, anti-His-HRP
T2 construct: detected with an anti-His antibody; tag not described; also called FcγRI/CD64; human Fc gamma receptor I
Protocol: (§1) The interaction of the unmodified and of conjugated antibodies with human Fc gamma receptors I (FcγRI/CD64), with human Fc gamma receptors IIa (FcγRIIa/CD32a), with inhibitory human Fc gamma receptors IIb (FcγRIIb/CD32b), and with human Fc gamma receptors III FcγRIIIa/CD16 were measured by ELISA.
(§2) Briefly, Corning high-binding half-area plates (Fisher Scientific, Reinach, Switzerland) were coated overnight at 4° C. with 25 μl of unmodified and of conjugated anti-PD1 antibodies at 2.5 μg/ml in PBS. Plates were then washed four times with 100 μl of PBS-0.02% Tween20. Plates surfaces were blocked with 25 μl of PBS-0.02% Tween20-1% BSA at 37° C. during 1 h. Plates were then washed four times with 100 μl of PBS-0.02% Tween20. Then twenty-five microliters of either recombinant Human Fc gamma RI/CD64 Protein (R&D systems, 1257-FC-050, CF), recombinant Human Fc gamma RIIA/CD32a (H167) Protein (R&D systems, 9595-CD-050, CF), recombinant Human Fc gamma RIIB/CD32b Avi-tag Protein (R&D systems, AVI1875-050, CF), or recombinant Human Fc gamma RIIIA/CD16a Protein (R&D systems, 4325-FC-050; CF) were added in five-fold serial dilutions ranging from 1000 nM to 0.001 nM into PBS-0.02% Tween20-0.1% BSA and incubated at 37° C. during 2 h. Plates were then washed four times with 100 μl of PBS-0.02% Tween20. Twenty-five microliters of a 1/500 HRP-anti-His antibody in PBS—0.02% Tween20-0.1% BSA (R&D systems, anti-HIS—HRP Ab, #MAB050H) were added to each well and plates were incubated at Room Temperature during 1 h. Plates were then washed four times with 100 μl of PBS-0.02% Tween20. Fifty microliters of TMB substrate reagent (#CL07, Merck, Buchs, Switzerland) were added to each well and incubated at 37° C. during 5 min. After 5 min at 37° C., Horseradish peroxidase reaction was stopped by adding 50 μl/well of 0.5M H2SO4 stop solution. ELISA signal was then measured at 450 nm on an EnSpire plate reader from Perkin Elmer (Schwerzenbach, Switzerland). Binding Affinity of Reference Antibodies and Immunocytokines with Human Fc Gamma Receptors as Measured by ELISA

[2] = target: B2; experiment: as above
Protocol: as §1, §2

[3] = target: T3, recombinant Human Fc gamma RIIIA/CD16a Protein (R&D systems, 4325-FC-050) (human, UniProt P08637 17-208); experiment: as above
T3 construct: detected with an anti-His antibody; tag and allotype not described; also called FcγRIIIa (CD16)
Protocol: as §1, §2

[4] = target: T1, recombinant Human Fc gamma RIIB/CD32b …; experiment: as above
Protocol: as §1, §2

[5] = target: T4, recombinant biotinylated human FcRn (human, UniProt P55899 24-297; P61769 21-119, limits assumed, biotinylated); experiment: AlphaLISA competition at pH 6; competitor: human IgG on acceptor beads
T4 construct: also called human neonatal Fc receptor (FcRn)
Protocol: The interaction of the unmodified and of conjugated anti-PD1 antibodies with the human neonatal Fc receptor (FcRn) at pH 6 was measured using the AlphaLISA® Human FcRn Binding Kit (AL3095C) from Perkin Elmer (Schwerzenbach, Switzerland).
After 90 min at 23° C. in the dark, AlphaLISA® signal was measured on an EnSpire plate reader (Excitation at 680 nm, Emission at 615 nm) from Perkin Elmer (Schwerzenbach, Switzerland). Binding Affinity of Reference Antibodies and Immunocytokines with the Human Neonatal Fc Receptor as Measured by AlphaLISA

[6] = target: T5, Composition B (Atezolizumab/Tecentriq conjugated to IL-18 polypeptide of SEQ ID NO: 30) (human, UniProt P0DOX5 2-449 = IgG part; P0DOX7 1-214; Q14116 37-193, chemical linker to the antibody; site not stated for this composition; chemical linker to IL-18; site not stated for this composition); experiment: ELISA; immunocytokine coated, receptor titrated, anti-His-HRP
T5 construct: immunocytokine
Protocol: as §1
Briefly, Corning high-binding half-area plates (Fisher Scientific, Reinach, Switzerland) were coated overnight at 4° C. with 25 μl of unmodified and of conjugated anti-PD1 antibodies at 2.5 μg/ml in PBS. Plates were then washed four times with 100 μl of PBS-0.02% Tween20. Plates surfaces were blocked with 25 μl of PBS-0.02% Tween20-1% BSA at 37° C. during 1 h. Plates were then washed four times with 100 μl of PBS-0.02% Tween20. […] ELISA signal was then measured at 450 nm on an EnSpire plate reader from Perkin Elmer (Schwerzenbach, Switzerland). Binding Affinity of Reference Antibodies and Immunocytokines with Human Fc Gamma Receptors as Measured by ELISA

[7] = target: T6, Biotinylated Recombinant Human PD-1/CD279-Fc Chimera, carrier-free (Biolegend #789406) (human, UniProt Q15116 25-167, biotinylated); experiment: ELISA: antibody coated on the plate (5 ug/ml), biotinylated human PD-1/CD279-Fc titrated in solution (x-axis), streptavidin-HRP/TMB, 450 nm
T6 construct: bought; also called recombinant biotinylated human PD-1; Fc part of the bought chimera not given
Protocol: (§3) The interaction of the unmodified antibodies and corresponding IL-18 immunocytokines with relevant immune cell associated antigen are measured by ELISA assay. For these studies, Corning high-binding half-area plates (Fisher Scientific, Reinach, Switzerland) are coated overnight at 4° C. with 25 μl of unmodified antibodies corresponding IL-18 immunocytokines at 5 μg/ml in PBS. Plates are then washed four times with 100 μl of PBS-0.02% Tween20. Plate surfaces are blocked with 25 μl of PBS-0.02% Tween20-1% BSA at 37° C. during 1 h. Plates are then washed four times with 100 μl of PBS-0.02% Tween20. […] Plates are then washed four times with 100 μl of PBS-0.02% Tween20. Twenty-five microliters of Streptavidin-Horseradish peroxidase (#RABHRP3, Merck, Buchs, Switzerland) diluted at 1:500 into PBS-0.02% Tween20-0.1% BSA are added to each well and incubated at Room Temperature during 30 min. Plates are then washed four times with 100 μl of PBS-0.02% Tween20. Fifty microliters of TMB substrate reagent (#CL07, Merck, Buchs, Switzerland) are added to each well and incubated at 37° C. during 5 min. After 5 min at 37° C., Horseradish peroxidase reaction is stopped by adding 50 μl/well of 0.5M H_2SO_4 stop solution. ELISA signal is then measured at 450 nm on an ENSPTRE® plate reader from Perkin Elmer (Schwerzenbach, Switzerland).

[8] = target: T7, His-tagged human PD1 (R&D #8986-PD) (human, UniProt Q15116 25-167); experiment: BLI (Octet), antibody on AHC sensor, His-tagged PD-1 as analyte
T7 construct: bought; not shown: His tag
Description: (§4) Based on Bio-Layer Interferometry (BLI), Octet® BLI systems enable real-time, label-free analysis for the determination of kinetics and affinity of a ligands to its receptor. Here anti-human IgG FC Capture (AHC) sensors are loaded with the test items (ICs). Sensors are first dipped into a kinetic buffer for baseline measurement, then into an analyte solution, here human PD1, to allow association and again into a buffer solution where the analyte is allowed to come off the ligand (dissociation). Several concentrations of analyte are run in parallel and enable the calculation of affinity parameters: Ka, Kd, KD.
(§5) Typically, first, the sensors are regenerated by 3 cycles of dipping into 10 mM glycine solution at pH=2 for 20 seconds, followed by 20 second kinetics buffer and a final 60 seconds in kinetics buffer to establish the initial signal (baseline). Second, the loading column will contain the ligand, here the unmodified PD-1 antibodies and of IL-18 polypeptide conjugated PD-1 antibody, at a fixed concentration determined in the loading scout experiment (20 ug/mL). Then another wash/baseline step allows non immobilized proteins to be washed away. The association column will contain the 2-fold dilution series of the analyte (His-tagged human PD1, R&D #8986-PD) including a no analyte control. […] The dissociation designates the sensors to return to previous baseline column with kinetics buffer. After acquisition, the data is analyzed with Data Analysis Studio software (Sartorius). Data sets are first preprocessed by subtracting references samples and aligning curves on the baseline step. Group fitting is then applied to the data series and kinetics parameters are calculated.

[9] = target: T6, Biotinylated Recombinant Human …; experiment: ELISA; antibody coated, biotinylated PD-1-Fc titrated
Protocol: as §3

[10] = target: T6, Biotinylated Recombinant Human …; experiment: ELISA; immunocytokine coated, biotinylated PD-1-Fc titrated
Protocol: as §3

[11] = target: T6, Biotinylated Recombinant Human …; experiment: ELISA: immunocytokine coated on the plate (5 ug/ml), biotinylated human PD-1/CD279-Fc titrated in solution (x-axis), streptavidin-HRP/TMB, 450 nm
Protocol: as §3

[12] = target: T7, His-tagged human PD1 (R&D #8986-PD); experiment: BLI (Octet), immunocytokine on AHC sensor, His-tagged PD-1 as analyte
Description: as §4, §5

Binder: B1
Kd [1]: 2.34 nM
Kd [2]: 160 nM
Kd [3]: 234 nM
Kd [4]: 233 nM
Kd [5]: 8.31 nM

Binder: B2
Kd [6]: 1740 nM

Binder: B3
EC50 (read off the curve) [7]: ~0.06 nM
Kd [8]: 23.5 nM
koff [8]: 0.0077 s⁻¹
kon [8]: 342000 M⁻¹ s⁻¹
Kd [9]: 0.0407 nM

Binder: B4
Kd [10]: 0.0467 nM
EC50 (read off the curve) [11]: ~0.07 nM
Kd [12]: 11.5 nM
koff [12]: 0.00479 s⁻¹
kon [12]: 454000 M⁻¹ s⁻¹
